According to PMC8334859, “MIR156-Targeted SPL9 Is Phosphorylated by SnRK2s and Interacts With ABI5 to Enhance ABA Responses in Arabidopsis” (Frontiers in Plant Science, 2021):
Blank lines part the entries; values can stand above or below the binder they belong to.

How the values were obtained:
ABI5-GST [1] = biological target: T1, ABI5-GST (Arabidopsis thaliana, UniProt Q9SJN0 1-442); test: pull-down; in vitro; SPL3 and ABI5 fusion proteins incubated with amylose resin overnight in column buffer (20 mM Tris-HCl pH 7.5, 200 mM NaCl, 1 mM PMSF, 1 mM DTT); blots with anti-GST and anti-MBP; conditions: both partners purified
T1 construct: ABI5, Arabidopsis thaliana, At2g36270, full-length CDS in pGEX4T-1; printed both as ABI5-GST and as GST-ABI5; also called GST-ABI5; source: Escherichia coli transetta
T1 sequence (looked up): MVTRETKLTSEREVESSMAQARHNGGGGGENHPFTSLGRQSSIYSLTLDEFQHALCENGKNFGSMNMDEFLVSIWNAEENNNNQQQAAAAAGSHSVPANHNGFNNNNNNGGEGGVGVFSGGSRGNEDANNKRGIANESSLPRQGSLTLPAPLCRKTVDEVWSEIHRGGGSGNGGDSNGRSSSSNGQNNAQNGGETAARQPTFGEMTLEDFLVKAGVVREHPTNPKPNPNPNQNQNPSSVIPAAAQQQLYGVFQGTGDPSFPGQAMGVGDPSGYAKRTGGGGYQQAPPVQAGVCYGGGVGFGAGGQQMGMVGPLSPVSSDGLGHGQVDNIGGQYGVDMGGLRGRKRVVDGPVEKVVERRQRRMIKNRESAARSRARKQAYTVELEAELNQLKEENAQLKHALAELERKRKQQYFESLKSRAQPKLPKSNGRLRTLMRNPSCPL

ABI5-GST [2] = biological target: T1, ABI5-GST; test: pull-down; in vitro; fusion proteins incubated with glutathione resin overnight in column buffer (20 mM Tris-HCl pH 7.5, 200 mM NaCl, 1 mM PMSF, 1 mM DTT); blots with anti-GST and anti-MBP; conditions: both partners purified

- binding result (ABI5-GST [1]): binds
B1: MBP-SPL3 (natural protein, Arabidopsis thaliana, UniProt P93015 1-131, looked up)
chain: MSMRRSKAEGKRSLRELSEEEEEEEETEDEDTFEEEEALEKKQKGKATSSSGVCQVESCTADMSKAKQYHKRHKVCQFHAKAPHVRISGLHQRFCQQCSRFHALSEFDEAKRSCRRRLAGHNERRRKSTTD
notes: SPL3, Arabidopsis thaliana, At2g33810, full-length CDS in pMAL-c2X; source: Escherichia coli transetta

- binding result (ABI5-GST [2]): binds
B2: MBP-SPL9 (natural protein, Arabidopsis thaliana, UniProt Q700W2 1-375, looked up)
chain: MEMGSNSGPGHGPGQAESGGSSTESSSFSGGLMFGQKIYFEDGGGGSGSSSSGGRSNRRVRGGGSGQSGQIPRCQVEGCGMDLTNAKGYYSRHRVCGVHSKTPKVTVAGIEQRFCQQCSRFHQLPEFDLEKRSCRRRLAGHNERRRKPQPASLSVLASRYGRIAPSLYENGDAGMNGSFLGNQEIGWPSSRTLDTRVMRRPVSSPSWQINPMNVFSQGSVGGGGTSFSSPEIMDTKLESYKGIGDSNCALSLLSNPHQPHDNNNNNNNNNNNNNNTWRASSGFGPMTVTMAQPPPAPSQHQYLNPPWVFKDNDNDMSPVLNLGRYTEPDNCQISSGTAMGEFELSDHHHQSRRQYMEDENTRAYDSSSHHTNWSL
notes: SPL9, Arabidopsis thaliana, At2g42200, full-length CDS in pMAL-c2X; source: Escherichia coli transetta, purified
